Assay results as given in the DeepSol protein solubility set.

Experiment: soluble on expression in E. coli; label from the status in PepcDB or PDB records

| Sequence | soluble on expression in E. coli |
| --- | --- |
| MSLNKKVDIRHIFISSQERGKEEAKKLADEIYNRLKNNEDFETLAKQYSDDEKTKESGGVITELRAGFNEAVFDNAVFTAEAGQLLEPIEVARGYEIVYVDKVTDFYRTRDEYAELLTVDKFMQSDAYKEWFEEYKKNYDIEITDPAMKAFRLFREKQYNEAGALYEELYKSEKDAYYIEMACEAYKLAENWAGLIEAGKLAVKENPDFVNYYLYQAEGEFKVGDANKAKELLKEAEKKAGDNTYFLDLIRKMYESQGLAEDVERIDRKFQEISEKLKGEGHHHHHH | soluble |
| SLDAAVGDVIVTLGADLSESDKQKVLDEMNVPDNATTVTVTNKEEHEYLGKYISNAQIGSRAISSSSITIAKKGSGLNVETHNISGITDEMYLNALMTAGVKDAKVYVTAPFEVSGTAALTGLIKAYEVSSDEAISEDVKQVANQELVTTSELGDKIGNENAAALIAKIKEEFAKNGVPDNKADIEKQVDDAASDLNVTLTDSQKNQLVSLFNKMKNADIDWGQVSDQLDKAKDKITKFIESDEGKNFIQKVIDFFVSIWNAIVSIFK | soluble |
| MHTNMWVVDNVVERKKYYPQLQEAAKLLRENEAIAFPTETVYGLGANAMNDEAIAKIFEAKGRPSDNPLIVHIGTKSQLDGIVKEIPPVAEKLMEHFWPGPLTIILPRKEGISEKVTAGLHTVGVRMPDHPVALALIEEANVPVAAPSANRSGRPSPTLASHVYEDLNEKIAGIVDGGATGVGVESTVIDCTSAVPTILRPGGITKEQLEAVIGTVSLDPALKDEKEKPKSPGMKYTHYAPKAPLSIVEGSREFIQRLVDEKKEEGFKVGVLTTEEYHHIYNADVVLSCGVRSDLASVATKLYDVLRTFDASEVDVIFSESFPNEGIGNAIMNRLTKAAGHHIITE | not soluble |
| GMMTDEARAKLAAIPMLAGYTGPLERLGGLTNLVFRAGDLCLRIPGKGTEEYINRANEAVAAREAAKAGVSPEVLHVDPATGVMVTRYIAGAQTMSPEKFKTRPGSPARAGEAFRKLHGSGAVFPFRFELFAMIDDYLKVLSTKNVTLPAGYHDVVREAGGVRSALAAHPLPLAACHCDPLCENFLDTGERMWIVDWEYSGMNDPLWDLGDLSVEGKFNANQDEELMRAYFGGEARPAERGRVVIYKAMCDLLWTLWGLIQLANDNPVDDFRAYADGRFARCKALMETPEFSRHLAAVRMG | soluble |
| IGDVNLTLRGNFTYSKSEILEYDEEYSNYPYKSQRGFRVDQTRGLIALGLFKDYDDIRNSPKQSWGDVMPGDIKYADVNGDGYVNDNDIVPIGATTRPNLVYGFGLSGQWKGIDINVLFQGSGKSTFCIDGPTVYPFENGDWGNILTDVVKSNRWILGENEDPNAKYPRLSYGGNSNNYRASTYWLRNGSYLRLKNLEIGYTIPKSLVNKMHLNNIRIYFMGTNLVTFSSFKLWDPELGSSNGQKYPLSKSYTLGLTINI | not soluble |
| MVVIIPPKLSVSTLMGVLKGRSAIRLFNKFPHVRKKQWGNSFWARGYFVDTVGVNEEIIRRYVRHQDKQDQEHEAQLSLQMM | soluble |
| MGSDKIHHHHHHMLQIKRKINATQSLMKITRAMEMVARAKVRKIESEYQKFKPFYDEVKRLWALVPAESLDPIFFEEGNRDLIVVITSDMGLCGSFNSEILREAERVISESRDPHLILVGLKAINHFKDGKVLKMYDRFYEIPDFRNGSTIVEDILNFLDGKPARVRVIFSRFKNVLIQRPEVHELLPIKKEEKKREDFEYEPRLEQIAPLIFHYYLSATLMELMFQTKIGEYYARQNAMKNATDNAQEVIRELTLAYNKARQASITQELIEIVTGAEALKEIEK | not soluble |
| MAHHHHHHMYNFFASVNAPSTPPQKQPQVEPSLPPSACHHHVAASSLLDGMTAHNASLWLLNASQQRSLSYAHSGGGGDNLAGAEQEKRTAASQFYSTFPTAAAPPPSSGVQSLHGVGQQPAQQPHKHLCTSILQSYEHVGNSATPAPGLSSSLPLQEHQSSTWVTLRGGSLRMQLDGVPYSPFASTNASAASQPPDAAHGNEQYYDSTSHHRGYSASSASSIRHTLQVPASPQQQHQQQRLPISSSVWTAATPATAMPASLFASSSIRPLTNTTYPGYSCDWSGNALPTLPAAVPAPYVSGAALPVSSRSQTTYSVMPQPPQSGQPCSPTAHPATHSIMILHPTLDRGTAAILQASADAVNTPLHCLTDVKASEISGTTHYLEVVQGGGSVGDNSKHSYPSSIPIASRQPQPPLQQYYLQPTPQQHQQGQQLAAEQPPVHSCFLTNDGNMSHFVNHTTAAGAIIQPPSSMLSDIASLASLSSRTAGAGRSGAWQQPSTADMGSYKDQSSKLQLQQQQQQQQQQRRPVSAARQVTYTRGIPRRNRDRAVLFVGQLNYEATEADVSQVFSCYGKPLSVVVLKDKGKATKKGGAGGITGGSAATHRKVGGSAFVTYGTTLEADTAIMALHGRYNAKGDDVENVDNSKYLQVSYGQQTGLISAFGMMHAEKLHASKPENPIPLLVKDRTNGKL | not soluble |
| DIQFSAGLFFQYNLSENFSLRIDPTFDRKGYQYKDITFTDNSGNILGTGKLYGHLDYITIPVLFKASVGNKVKYFVNAGPSIGLLLSETFIYDNPYGNGNQKTHNTNQYKKADAGITAGLGIAIPLGNAIALSFEVRNNVGLTNINKNSNANSAIHANTTSMLVGVAYKF | not soluble |
| GMSKLSLIQQLKQQKLSVGILSANWLQLNEEVTTLLENQINVLHFDIADGQFSSLFTVGAIGIKYFPTHCFKDVHLMVRNQLEVAKAVVANGANLVTLQLEQYHDFALTIEWLAKQKTTYANQVYPVLIGACLCPETPISELEPYLDQIDVIQLLTLDPRNGTKYPSELILDRVIQVEKRLGNRRVEKLINIDGSMTLELAKYFKQGTHQIDWLVSGSALFSGELKTNLKVWKSSIM | soluble |
| MGGLSAQSTAATATMGGKNKQRTKGNLRPSNSGRAAELLAKEQGTVPGFIGFGTSQSDLGYVPAIQGAEEIDSLVDSDFRMVLRKLSKKDVTTKLKAMQEFGTMCTERDTETVKGVLPYWPRIFCKISLDHDRRVREATQQAFEKLILKVKKQLGPYLKSLMGYWLMAQCDTYTPAAFAAKDAFEAAFPPSKQPEAIAFCKDEITSVLQDHLIKETPDTLSDPQTVQRKKEKLNSTGLLEHHHHHH | not soluble |
| MTQLWVERTGTRRYIGRSTRGAQVLVGSEDVDGVFTPGELLKIALAACSGMASDQPLARRLGDDYQAVVKVSGAADRDQERYPLIEETMELDLSGLTEDEKERLLVVINRAVELACTVGRTLKSGTTVNLEVVDVGA | not soluble |
| MKKVGILNSEISKIVADMGHMDTLAVVDLGFPIPQGVKKVDLVVDRGKPGLMEVIEILLRELKVERIILAKEMDEKSIQTKQELLKLIEKMNGPVEVVTVPHKEFKEMSKNVKGIIRTGADIPYSNVILVGGVIF | soluble |
| MKNNRYSPDWPQLALQKKQSVNWVCERCGVQCLKPGEGKGLSTGDRYRLRMAVHHCDYDPSNNYPSNLMALCSPCHLYYHRRQRGNVTPGQLTLKFCLEHHHHHH | not soluble |
| MGSSHHHHHHSSGLVPRGSVCMTEIATTSGARSVGLLSVGAYRPERVVTNDEICQHIDSSDEWIYTATGIKTRRFAADDESAASMATEACRRALSNAGLSAADIDGVIVTTNTHFLQTPPAAPMVAASLGAKGILGFDLSAGCAGFGYALGAAADMIRGGGAATMLVVGTEKLSPTIDMYDAGNCFIFADGAAAVVVGETPFQGIGPTVAGSDGEQADAIRQDIDWITFAQNPSGPRPFVRLEGPAVFRWAAFKMGDVGRRAMDAAGVRPDQIDVFVPHQANSRINELLVKNLQLRPDAVVANDIEHTGNTSAASIPLAMAELLTTGAAKPGDLALLIGYGAGLSYAAQVVRMPKG | soluble |
| TTNWLNYRAGSVAYEQAAEPLELLTEARIHAQRARTDETLALVWRQSLENSNHTFSTTLKRVDKALSKPGLDPAEVAAARNAMNTWRASHEELTNFLNSGRYEEALKLTTEGPSAFTDLDAALDSLIDSTRVRLRTEIRGVDTTQVN | not soluble |
| MGSDKIHHHHHHMGEIVLAAKCTHVPTMLMSEQEGPVKGKRQAAIDGHLEIARRARALGADTVVICDTHWVINAGFHINANSRFQGLFTSNEFPQFIQNMPYDYEGNPGLGDAIAKEASARGAYTLAHHLDSLELEYGTLVPMRFMSREHKMKVVSVAAWCTVHDHDESRIVGEAIRAAVEASNSKVLLVASGSLSHKIWPNKDYAANNGTFTISSEFNRQMDLHVLEMWKRGDHATFLKMLGDYARFCCGEGSMHDTAMLYGALGWDSYDKPCEVVTEYFPSSGTGQTNVIFPV | not soluble |
| GMIQVPASFDIQGHRGCRGLLPENTIAAFTKALLLGVTTLEFDLVISKDNRVVVSHDTFFHHEITMMVDGEDVTEANEKNFNLYAMNYADIKEIDVGMKTHPRFKSQKKVPAVKPLFRELIETAEKLSAKIQYNGEIKSTVEGDNIDHPNIALFCDLVVAEIKKAHITDRFTLQSFDVRALEYMHSQYPDIKLSYLVETKGTLKKQLEKLSFTPAVYSPDVTLVSKKDIDAAHKLGMRVIPWTVNTKEEIETLISLGVDGIITDYPDLFFEK | soluble |
| MLREVVHRFGESDFTFLSVLDSYALLDRIDPAAFVKDEQMPYWAEIWPAAVTLSRQIVETGELAGKSVLELGAGVGMASIAAARSGARVLCTDYSTEALRFVAYNAMKNRVPLDTARLDWRMVKGAEKFDAVIAADVLYERVNLLPIVTAIDALLAPGGAAYIADPRRRLADQFLELVHENGFEVAETRMFDAEGDQTVAVTIYKLQRLKALEHHHHHH | not soluble |
| MSAFKKSLLVAGVAMILSNNVFADEGHGIVKFKGEVISAPCSIKPGDEDLTVNLGEVADTVLKSDQKSLAEPFTIHLQDCMLSQGGTTYSKAKVTFTTANTMTGQSDLLKNTKETEIGGATGVGVRILDSQSGEVTLGTPVVITFNNTNSYQELNFKARMESPSKDATPGNVYAQADYKIAYE | soluble |
| MGHHHHHHSHAADEEKAARGIAADRLIIGHVARFHEVKNHAFLLKLAAHLKERGIRFQLVLAGDGPLCGEIEEEARQQNLLSDVLFLGTEERIHELMRTFDVFVMPSLYEGLPVVLVEAQASGLPCIISDSITEKVDAGLGLVTRLSLSEPISVWAETIARAAAAGRPKREFIKETLAQ | soluble |
| MGSDKIHHHHHHMANRLNQLLKQWLSQKDTQKWVLATIIETDGSSYRKAGAMMMINDLGQYFGLLSGGCLESDIMLQARRCWDSGRNRIVEYDMREEEDLAWKLGIGCGGMVRILLQPVDEANQYLQLDSLYALLESNQTAEYCQVINDQVPLNTLKTLTLKQAAPEQAKSIEGALKKADTDRKTETQQGVFKQYLKPAPHLAVFGGGVDARPVVAIATQLGWQVTLVDPRTSYARNGHFDNSVSVVRDAIESLEQNRWLQQIDMAIIMTHNIKLDAQSLALVQKSSAKYVGMLGPIHRTDRVLDLIPTTREQLVKPLANPVGLRLGGELPESIALSMLSEAHAFIEQQNGLSISGILRQ | not soluble |
| MAHHHHHHMATSLSDVNHIILVLSGKGGVGKSTVACQLALALANVHGKKVGLLDVDICGPSVPTICGVTGKDVYRGDAGWEPVSLFHEQHEADTAASATGNVKIMSIAFLLPSENDAVVWRGPKKDAMIRQFVTDVHWGALDYLIIDTPPGTSDEHLTLCEVLKPFNTAGAVIVTTPQDVATDDVKKELSLCHKLELRCLGVVENMSGFVCPHCAHCTDIFSKGGGKKLAEMYEVEFLGAIPIDPTLSLAEDKGQCFVTTATDANSPTVRKTVAAVTGVIDAILKQVEKSAQLQQRH | soluble |
| MKMLEQLEKKLGYTFKDKSLLEKALTHVSYSKKEHYETLEFLGDALVNFFIVDLLVQYSPNKREGFLSPLKAYLISEEFFNLLAQKLELHKFIRIKRGKINETIIGDVFEALWAAVYIDSGRDANFTRELFYKLFKEDILSAIKEGRVKKDYKTILQEITQKRWKERPEYRLISVEGPHHKKKFIVEAKIKEYRTLGEGKSKKEAEQRAAEELIKLLEESE | soluble |
